Assays:
[1] = biological target: fibrillin (molecule within bovine ciliary zonule microfibrils) (bovine (endogenous in ciliary zonule)) (UniProt P98133); assay: cryo-EM structure; conditions: scale: fibrillin monomers per microfibril repeat
[2] = biological target: fibrillin microfibrils purified from bovine ciliary zonules (bovine (endogenous in ciliary zonule)) (UniProt P98133); assay: STEM mass mapping; conditions: scale: molecules of LTBP-1 per microfibril repeat
Chain of fibrillin microfibrils purified from bovine ciliary zonules (bovine (endogenous in ciliary zonule)) (P98133 25-2871): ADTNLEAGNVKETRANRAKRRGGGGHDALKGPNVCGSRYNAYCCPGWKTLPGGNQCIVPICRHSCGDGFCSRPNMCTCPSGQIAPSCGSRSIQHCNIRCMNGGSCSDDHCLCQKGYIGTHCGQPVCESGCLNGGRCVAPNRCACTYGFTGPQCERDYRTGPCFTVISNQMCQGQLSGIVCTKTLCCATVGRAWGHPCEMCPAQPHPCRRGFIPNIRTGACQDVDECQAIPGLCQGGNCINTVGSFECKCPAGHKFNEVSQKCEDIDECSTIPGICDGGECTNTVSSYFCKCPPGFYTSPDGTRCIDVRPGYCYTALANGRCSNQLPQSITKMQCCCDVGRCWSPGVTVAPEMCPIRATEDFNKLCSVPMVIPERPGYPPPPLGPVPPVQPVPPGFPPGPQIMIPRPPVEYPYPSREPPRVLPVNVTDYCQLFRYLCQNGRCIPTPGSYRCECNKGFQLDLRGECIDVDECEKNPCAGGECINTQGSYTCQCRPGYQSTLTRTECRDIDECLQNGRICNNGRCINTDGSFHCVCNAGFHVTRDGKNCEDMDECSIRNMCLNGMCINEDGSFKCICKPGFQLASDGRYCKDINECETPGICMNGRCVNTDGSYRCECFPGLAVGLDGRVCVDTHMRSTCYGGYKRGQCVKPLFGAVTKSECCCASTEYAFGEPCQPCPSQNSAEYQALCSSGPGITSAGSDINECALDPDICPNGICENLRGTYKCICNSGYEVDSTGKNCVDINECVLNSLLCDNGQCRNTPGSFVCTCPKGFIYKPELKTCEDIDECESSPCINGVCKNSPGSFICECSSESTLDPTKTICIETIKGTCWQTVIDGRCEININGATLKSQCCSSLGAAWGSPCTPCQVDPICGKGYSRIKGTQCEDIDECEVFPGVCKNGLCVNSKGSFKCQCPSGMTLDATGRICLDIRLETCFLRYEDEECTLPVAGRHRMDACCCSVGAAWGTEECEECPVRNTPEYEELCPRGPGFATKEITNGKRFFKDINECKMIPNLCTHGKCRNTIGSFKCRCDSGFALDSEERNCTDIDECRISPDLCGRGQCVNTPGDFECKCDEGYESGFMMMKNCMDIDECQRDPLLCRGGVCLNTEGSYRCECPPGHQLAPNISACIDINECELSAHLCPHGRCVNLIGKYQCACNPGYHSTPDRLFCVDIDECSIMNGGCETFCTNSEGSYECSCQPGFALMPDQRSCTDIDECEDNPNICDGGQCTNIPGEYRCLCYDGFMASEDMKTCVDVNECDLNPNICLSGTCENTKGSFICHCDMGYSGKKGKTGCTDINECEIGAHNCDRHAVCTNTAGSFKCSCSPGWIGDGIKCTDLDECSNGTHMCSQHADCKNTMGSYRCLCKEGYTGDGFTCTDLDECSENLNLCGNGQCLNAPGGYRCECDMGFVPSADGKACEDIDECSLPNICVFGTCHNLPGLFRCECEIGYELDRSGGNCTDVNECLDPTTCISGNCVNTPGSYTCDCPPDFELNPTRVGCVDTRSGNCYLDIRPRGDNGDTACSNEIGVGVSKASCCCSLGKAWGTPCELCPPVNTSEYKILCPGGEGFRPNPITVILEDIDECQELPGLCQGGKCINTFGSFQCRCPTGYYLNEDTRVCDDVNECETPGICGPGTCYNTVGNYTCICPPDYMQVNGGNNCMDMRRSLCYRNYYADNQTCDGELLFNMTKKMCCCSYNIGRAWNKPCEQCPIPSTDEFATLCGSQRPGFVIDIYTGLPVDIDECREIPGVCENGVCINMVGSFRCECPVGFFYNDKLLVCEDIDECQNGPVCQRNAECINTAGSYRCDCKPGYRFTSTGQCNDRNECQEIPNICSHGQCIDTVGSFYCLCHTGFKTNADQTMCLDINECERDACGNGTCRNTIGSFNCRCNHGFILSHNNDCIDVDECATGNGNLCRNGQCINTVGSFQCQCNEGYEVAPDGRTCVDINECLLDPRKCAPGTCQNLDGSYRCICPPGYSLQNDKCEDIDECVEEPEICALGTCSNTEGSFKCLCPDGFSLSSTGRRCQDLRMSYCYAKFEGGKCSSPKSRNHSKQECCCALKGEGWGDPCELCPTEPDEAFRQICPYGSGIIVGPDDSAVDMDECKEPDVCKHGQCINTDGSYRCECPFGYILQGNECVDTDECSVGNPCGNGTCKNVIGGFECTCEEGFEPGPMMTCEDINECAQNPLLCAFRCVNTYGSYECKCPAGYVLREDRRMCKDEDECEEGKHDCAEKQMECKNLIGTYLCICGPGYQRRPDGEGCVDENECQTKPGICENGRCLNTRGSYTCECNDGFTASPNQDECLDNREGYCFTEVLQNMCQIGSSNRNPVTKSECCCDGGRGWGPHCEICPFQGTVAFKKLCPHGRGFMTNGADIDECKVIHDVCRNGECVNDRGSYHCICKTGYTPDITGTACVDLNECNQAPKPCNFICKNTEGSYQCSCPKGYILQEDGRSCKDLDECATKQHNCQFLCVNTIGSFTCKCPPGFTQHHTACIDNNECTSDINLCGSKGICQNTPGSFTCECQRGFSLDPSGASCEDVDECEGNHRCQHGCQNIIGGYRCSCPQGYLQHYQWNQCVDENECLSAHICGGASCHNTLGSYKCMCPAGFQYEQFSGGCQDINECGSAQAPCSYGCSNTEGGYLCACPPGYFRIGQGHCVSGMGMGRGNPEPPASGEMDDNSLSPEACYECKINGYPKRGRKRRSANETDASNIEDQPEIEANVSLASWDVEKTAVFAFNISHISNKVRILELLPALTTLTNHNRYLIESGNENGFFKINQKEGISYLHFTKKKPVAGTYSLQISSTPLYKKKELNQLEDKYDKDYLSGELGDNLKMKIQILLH

Chain of fibrillin (molecule within bovine ciliary zonule microfibrils) (P98133 25-2871): as above

| stoichiometry N [1] | stoichiometry N [2] | Substance |
| --- | --- | --- |
| 8 | – | fibrillin (molecule within bovine ciliary zonule microfibrils) (from UniProt P98133 25-2871) (natural protein) |
| – | 2 | full-length LTBP-1 (latent TGFβ-binding protein-1) (from UniProt Q14766 24-1721) (natural protein) |

Source: publication doi:10.1101/2022.08.26.505362
